Test results reported in the supplement of paper PMC10724198.
± gives the standard deviation of the averaged measurements.

Tested on: Saccharomyces cerevisiae
Assay: protein stability index of tFT-peptide fusion (C-terminal peptide) (PSI (0-1 scale)); higher = more stable (slower turnover)
Details: genetic background: wild type; temperature: 30 C
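Further: PSI is a weighted mean of sequencing reads over stability bins, variants kept only with over 10 reads, mCherry proximal and sfGFP distal, peptide attached via GGGS linker.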

| Sequence | protein stability index |
| --- | --- |
| VAGKVWREAEPG | 0.656 ± 0.029 |
| GVGVWQWERGRG | 0.789 ± 0.1 |
| GVQEGGGGARGG | 0.633 ± 0.023 |
| IRPFALSPSSLP | 0.658 ± 0.12 |
| APPLPHSSSGSL | 0.698 ± 0.028 |
| PLVRGSLGALGR | 0.657 ± 0.12 |
| DSVGGVLGRGAR | 0.633 ± 0.022 |
| IVTSPRPPRCTS | 0.7193 ± 0.0051 |
| VFLQRIDDKSPY | 0.712 ± 0.046 |
| VECGVAGSLDLA | 0.713 ± 0.014 |
| YVCCMEGFLKPL | 0.619 ± 0.043 |
| NFFTLTRCTLFI | 0.66684 ± 0.00029 |
| FPLSLSFLSPLV | 0.705 ± 0.12 |
| QTHRFLHVGKSL | 0.621 ± 0.043 |
| LGLGERLSINTF | 0.70035 ± 0.00022 |
| QPGPKTTYLEEA | 0.686 ± 0.014 |
| RLRQTLPTWVTT | 0.665 ± 0.015 |
| PLLPLLPSPASP | 0.674 ± 0.0098 |
| VAYYFVRNIIGE | 0.667 ± 0.056 |
| VVALTSVRSRDV | 0.6759 ± 0.0013 |
| GTGPPPSPPSLP | 0.683 ± 0.091 |
| GGLVVRCGVTSS | 0.695 ± 0.15 |
| LGVRGSMGPGGG | 0.683 ± 0.082 |
| GGVASGGCFWGR | 0.6761 ± 0.0053 |
| KTKDGKNNRRTN | 0.687 ± 0.009 |
| SPPRSRPPPSLQ | 0.679 ± 0.015 |

| Sequence | protein stability index |
| --- | --- |
| DGPALWPRSVVD | 0.684 ± 0.1 |
| KKKRDKKGKKKQ | 0.697 ± 0.012 |
| PVPIPCPIPPPT | 0.703 ± 0.0062 |
| LGSYSALKIGWG | 0.592 ± 0.029 |
| WWAGGCGGERGG | 0.686 ± 0.018 |
| GRSASDTRGLGL | 0.672 ± 0.13 |
| PPHPPPVTPHAS | 0.722 ± 0.029 |
| GILVALGSPLLV | 0.592 ± 0.048 |
| FCSMLPSHLPEA | 0.6972 ± 0.0027 |
| GDVLLLGGAGER | 0.671 ± 0.07 |
| CVIIDFTLCSVI | 0.682 ± 0.14 |
| DVVLFQLGSELV | 0.712 ± 0.013 |
| IARSVLRIGVWG | 0.612 ± 0.045 |
| CRHPYTSTTRLA | 0.68 ± 0.025 |
| VGGVWAGGGCSF | 0.651 ± 0.12 |
| GPCFKSQPKSPI | 0.6807 ± 0.0024 |
| PPSPASASPDRR | 0.695 ± 0.022 |
| GEGRGRTETEMK | 0.682 ± 0.033 |
| SATDARPPMKSP | 0.735 ± 0.069 |
| VRQCSSGFRGAF | 0.674 ± 0.07 |
| GVVRWGRVVGCF | 0.631 ± 0.084 |
| RGGGGGRKVSVG | 0.658 ± 0.062 |
| SLSPPPLSPSPP | 0.627 ± 0.022 |
| RRLSVPFSPSAL | 0.733 ± 0.032 |
| PTPTNLLPPRKY | 0.6504 ± 0.0044 |
| PPDRNPANTSCD | 0.638 ± 0.029 |

| Sequence | protein stability index |
| --- | --- |
| VGGGVGVPGVLG | 0.672 ± 0.012 |
| PRRPLPTISCPS | 0.618 ± 0.005 |
| RKEESKKEKNKI | 0.65 ± 0.11 |
| GKSGVTGAGEKR | 0.681 ± 0.06 |
| DVFCRPRCFRRG | 0.686 ± 0.041 |
| TKQIKKNKHKRA | 0.727 ± 0.12 |
| ALDACLYLSSGL | 0.637 ± 0.0097 |
| GACGSTLPASSR | 0.668 ± 0.058 |
| LLGSGTVSGCAG | 0.642 ± 0.04 |
| LYTSPLPAAFQL | 0.726 ± 0.038 |
| VAYRGGGGWRIS | 0.6865 ± 0.005 |
| RRESQRRYRRML | 0.714 ± 0.059 |
| GERLGECGGGVG | 0.6652 ± 0.0021 |
| PHPLPLPLPLSP | 0.7134 ± 0.0017 |
| FSRAPHFSGRLC | 0.502 ± 0.0087 |
| PPALPPTRPPVS | 0.696 ± 0.047 |
| EGGAGGGVWGLG | 0.819 ± 0.11 |
| KKEQRKKRQQKT | 0.6958 ± 0.0066 |
| HFSTSFYSSAFR | 0.631 ± 0.026 |
| DIKAISVKYTIQ | 0.6127 ± 0.0056 |
| LLPRPSLDPSPP | 0.682 ± 0.11 |
| LGFSCHGRPPCS | 0.699 ± 0.085 |
| KIKKTITKNTKR | 0.726 ± 0.0082 |
| PSRRHGFRLILT | 0.679 ± 0.019 |
| GCGGAWGVWDGV | 0.729 ± 0.072 |
| HFIDFVVVSFSI | 0.548 ± 0.095 |

| Sequence | protein stability index |
| --- | --- |
| SGILRSLAYPPD | 0.6142 ± 0.0035 |
| SRAVTDRGWSPR | 0.68 ± 0.028 |
| GVGGRVRDALGM | 0.68 ± 0.066 |
| PPPLPPPILLRF | 0.598 ± 0.024 |
| LRTKRGKREEYD | 0.73 ± 0.015 |
| SPITSLSGGTKR | 0.631 ± 0.064 |
| GLHVPLTGFCFC | 0.63 ± 0.02 |
| APPPPVAEAARG | 0.667 ± 0.032 |
| RLLRDFQSVGGD | 0.6498 ± 0.0014 |
| SHGEDTACNWGL | 0.714 ± 0.018 |
| GGGGLGRGKGCW | 0.706 ± 0.03 |
| VFPSLCITSVCT | 0.53 ± 0.02 |
| KSQKKKKKNKNF | 0.57 ± 0.044 |
| VSKLTRHLWANQ | 0.61 ± 0.094 |
| RGGEGTQRRKLR | 0.717 ± 0.077 |
| KKMMQNKKQTEI | 0.727 ± 0.036 |
| RTKLFGIVGRQL | 0.659 ± 0.036 |
| GAWFTSSPVFGS | 0.731 ± 0.034 |
| GAVARFRERALS | 0.525 ± 0.0098 |
| WCECGVWVGLWG | 0.732 ± 0.059 |
| IPLSFDRLLLID | 0.63 ± 0.015 |
| KKKKKTKEINLK | 0.6698 ± 0.00079 |
| PRAPRVSTRRPE | 0.793 ± 0.083 |
